Measurements reported in patent US20230126400A1.

What was measured:
Conditions in all cases: remark: other sources report otherwise
[1] = molecular target: human MS4A4A (human), Q96JQ5; assay: functional affinity, FACS titration on stably transfected 300.19 cells
[2] = molecular target: human MS4A4A (human), Q96JQ5; assay: flow cytometry (anti-mouse IgG Fc-APC) on U937 cells transfected with human MS4A4A (Plate B); untransfected U937 cells (Plate A): mean 313
[3] = molecular target: human MS4A4A (human), Q96JQ5; assay: flow cytometry (anti-mouse IgG Fc-APC) on 300.19 cells transfected with human MS4A4A (Plate D); untransfected 300.19 cells (Plate C): mean 122

B1: anti-MS4A4A antibody 4A-21 (murine) (antibody, IgG1, V domains shown)
VH: QIQLVQSGPELKKPGETVKISCKASGYIFTSYGLSWVKQTPGKGLKWMGWINTYSGVPTYANDFKGRFAFSLETSASTTYLRINNLKNDDTATYFCARSLVDYWGQGTPLTVSS
VL: not shown
[1]
  Kd: 14 nM
[2]
  Mean : APC-A: 7370
[3]
  Mean : APC-A: 3600

B2: anti-MS4A4A antibody 4A-21, huIgG1 chimera (antibody, V domains shown)
VH: B1 VH
VL: not shown
[1]
  Kd: 8.7 nM
